Reference: patent US20070066802A1

What was measured:
Assay in all cases: cell-based or functional assay
[1] = molecular target: K^b-CD28[L→G]-ζ receptor pulsed with ovalbumin 257-264 peptide (SIINFEKL) (mouse) (UniProt P31041)
[2] = molecular target: K^b-CD28-ζ receptor pulsed with ovalbumin 257-264 peptide (SIINFEKL) (mouse) (UniProt P31041)
[3] = molecular target: K^b-CD28[L→G]-ζ receptor (mouse) (UniProt P31041)

in vivo depletion of Vα2+ OT-1 cells from the LN, peptide-pulsed against unpulsed RMTC [1] | in vivo depletion of Vα2+ OT-1 cells from the spleen, peptide-pulsed against unpulsed RMTC [1] | lysis of OT-1 target cells, peptide concentration for equivalent lysis against K^b-CD28-ζ RMTC (fold lower peptide concentration) [1] | specific lysis of OT-1 T cells, RMTC dose for equivalent lysis against K^b-CD28-ζ RMTC (fold fewer RMTC) [1] | in vivo depletion of Vα2+ OT-1 cells from the LN, peptide-pulsed against unpulsed RMTC [2] | in vivo depletion of Vα2+ OT-1 cells from the spleen, peptide-pulsed against unpulsed RMTC [2] | IFN-γ release by RMTC [3] | Substance
98% | 99% | 5 to 20 | 3 to 9 | 93% | 96% | – | OT-1 TCR (rearranged ovalbumin 257-264/H-2K^b restricted TCR)
– | – | – | – | – | – | > 3.5 fold | clone AF6-88.5 anti-mouse H-2K^b (antibody)
